Data set [1] can be described thus: Phase 1 single and multiple ascending dose trial of inhaled (nebulized) CA28 in healthy volunteers. It counts as in vivo, human. As for the experimental part: In the single ascending dose part of the trial, 16 subjects were enrolled in four cohorts of four subjects each.
Four subjects were enrolled in the first cohort of the multiple ascending dose part of the trial. These subjects were to receive 14 consecutive days of treatment with a 60 mg/day dose of the drug. […] The trial was paused and subsequently resumed, with subjects receiving 30 mg/day. […] The trial was then terminated.

Data set [2] addresses T1, complement component C3 (human, UniProt P01024 23-1663). Put plainly: cell-based or functional assay.
Data set [3] has as its target T1, complement component C3. Put plainly: cell-based or functional assay. The source holds these as a separate data set.

`CC[C@H](C)[C@H](NC(C)=O)C(=O)N[C@H]1CSSC[C@@H](C(=O)N[C@H](C(N)=O)[C@@H](C)O)NC(=O)[C@H](CCCNC(=N)N)NC(=O)[C@H](Cc2cnc[nH]2)NC(=O)[C@H](C)NC(=O)CNC(=O)[C@H](Cc2c[nH]c3ccccc23)NC(=O)[C@H](CC(=O)O)NC(=O)[C@H](CCC(N)=O)NC(=O)[C@H](Cc2cn(C)c3ccccc23)NC(=O)[C@H](C(C)C)NC1=O` [CA28]: the adverse event entry in data set [1] (inhaled 30 mg/day, after 10 days) is “Another subject developed signs and symptoms consistent with a potential bacterial infection”; in data set [1] (inhaled 60 mg/day, after nine days), “one subject developed signs and symptoms consistent with a potential bacterial infection”.

B1: CA28-AEEAc-Lys(mPEG40K-succinyl) (peptide)
peptide: ICVWQDWGAHRCTK
modifications: not fully specified; N-terminal acetyl; (1Me)Trp at position 4; disulfide Cys2-Cys12; AEEAc between Thr13 and Lys; 40 kD mPEG (NOF ME-400CS) on the Lys15 side chain; C-terminal amide
For the molecule B1, the “IC50 (read off the curve) (classical pathway complement activation, C3b deposition ELISA with human plasma)” value in the data set with complement component C3 [2] is around 0.7 µM.

B2: CA28-2TS-BF (peptide)
peptide: ICVWQDWGAHRCTK
modifications: not fully specified; N-terminal acetyl; (1Me)Trp at position 4; disulfide Cys2-Cys12; AEEAc between Thr13 and Lys; Lys side chain linked by a carbamate to one end of a bifunctional linear 40 kD PEG of the TS type; C-terminal amide
Turning to B2, the “IC50 (read off the curve) (alternative pathway complement activation, LPS-coated plate, C3b deposition ELISA) [B]” value with complement component C3 [3] is around 0.4 µM.

B3: CA28-AEEAc-Lys-(PEG40k) (peptide)
peptide: ICVWQDWGAHRCTK
modifications: not fully specified; N-terminal acetyl; (1Me)Trp at position 4; disulfide Cys2-Cys12; AEEAc between Thr13 and Lys; linear monofunctional 40 kD PEG (NOF ME-400GS) on the Lys side chain; C-terminal amide
B3: the “IC50 (read off the curve) (classical pathway complement activation, C3b deposition ELISA with human plasma)” value with complement component C3 [2] was around 0.7 µM.

B4: CA28-AEEAc-Lys(mPEG40K-hexanoyl) (peptide)
peptide: ICVWQDWGAHRCTK
modifications: not fully specified; N-terminal acetyl; (1Me)Trp at position 4; disulfide Cys2-Cys12; AEEAc between Thr13 and Lys; 40 kD mPEG (NOF ME-400HS) on the Lys15 side chain; C-terminal amide
Turning to B4, in the data set with complement component C3 [2], the “IC50 (read off the curve) (classical pathway complement activation, C3b deposition ELISA with human plasma)” value is around 0.7 µM.

B5: CA28-AEEAc-Lys(mPEG40K-carbonyl) (peptide)
peptide: ICVWQDWGAHRCTK
modifications: not fully specified; N-terminal acetyl; (1Me)Trp at position 4; disulfide Cys2-Cys12; AEEAc between Thr13 and Lys; 40 kD mPEG (NOF ME-400TS) on the Lys15 side chain; C-terminal amide
Consider B5, for which the “IC50 (read off the curve) (classical pathway complement activation, C3b deposition ELISA with human plasma)” value in the data set with complement component C3 [2] was around 0.7 µM.

The values above are taken from patent US20260183365A1, “COMBINATION THERAPY FOR C3 INHIBITION” (Apellis Pharmaceuticals, Inc., priority 2016, published 2026).
